Measurements: patent US20130216513A1 (Biogen, published 2013)

Target: T1, GPIIbIIIa on activated human platelets (human, UniProt P08514 32-1039; P05106 27-788)
T1 construct: whole, on cells; also called active form of GPIIbIIIa
Assay: FACS on activated human platelets, FITC-labeled FVII antibody; reference FVIIaFc (FVII-011); FIG. 44C

binding result: binds
B1: FVII-094 (other)
chain 1: ANAFLEELRPGSLERECKEEQCSFEEAREIFKDAERTKLFWISYSDGDQCASSPCQNGGSCKDQLQSYICFCLPAFEGRNCETHKDDQLICVNENGGCEQYCSDHTGTKRSCRCHEGYSLLADGVSCTPTVEYPCGKIPILEKRNASKPQGR
chain 2: IVGGKVCPKGECPWQVLLLVNGAQLCGGTLINTIWVVSAAHCFDKIKNWRNLIAVLGEHDLSEHDGDEQSRRVAQVIIPSTYVPGTTNHDIALLRLHQPVVLTDHVVPLCLPERTFSERTLAFVRFSLVSGWGQLLDRGATALELMVLNVPRLMTQDCLQQSRKVGDSPNITEYMFCAGYSDGSKDSCKGDSGGPHATHYRGTWYLTGIVSWGQGCATVGHFGVYTRVSQYIEWLQKLMRSEPRPGVLLRAPFPDIGGGGSGGGGSGGGGSGGGGSGGGGSGGGGSAQVQLQESGGGLVQPGGSLRLSCAASGFMFSRYAMSWVRQAPGKGPEWVSGISGSGGSTYYADSVKGRFTVSRDNSKNTLYLQMNSLRAEDTAVYYCARGATYTSRSDVPDQTSFDYWGQGTLVTVSSGSASAPKLEEGEFSEARVSELTQDPAVSVALGQTVRITCQGDSLRNFYASWYQQKPGQAPTLVIYGLSKRPSGIPDRFSASSSGNTASLTITGAQAEDEADYYCLLYYGGGQQGVFGGGTKLTVLRQPKAAPSVTLFPPSSAA
notes: SCE5 at the C-terminus of FVIIa; no Fc; also called pSYN-FVII-094
